# Laboratory results: patent US20210355194A1 (TWIST BIOSCIENCE, published 2021)
# Changes are numbered by the printed parent chain.
# B1: variant 5-34 (Fc fusion)
# VHH: EVQLVESGGGLVQPGGSLRLSCAASGRTFSRYIMGWFRQAPGKEREFVAAISWSGGDNTYYADSVKGRFTISADNSKNTAYLQMNSLKPEDTAVYYCAAYRIVVGGTSPGDWRWGQGTLVTVSS
# B2: SARS-CoV-2 S1 variant 2-2 (antibody, V domains shown)
# VH: EVQLLESGGGLVQPGGSLRLSCAASGFTFSRHAMNWVRQAPGKGLEWVSGISGSGDETYYADSVKGRFTISRDNSKNTLYLQMNSLRAEDTAVYYCARDLPASYYDSSGYYWHNGMDVWGQGTLVTVSS
# VL: DIQMTQSPSSLSASVGDRVTITCRASQTINTYLNWYQQKPGKAPKLLIYSASTLQSGVPSRFSGSGSGTDFTLTISSLQPEDFATYYCQQSYSTFTFGQGTKVEIK
# B3: SARS-CoV-2 S1 variant 2-5 (antibody, V domains shown)
# VH: EVQLLESGGGLVQPGGSLRLSCAASGFTFSDFAMAWVRQAPGKGLEWVSAISGSGDITYYADSVKGRFTISRDNSKNTLYLQMNSLRAEDTAVYYCAREADGLHSPWHFDLWGQGTLVTVSS
# VL: DIQMTQSPSSLSASVGDRVTITCRASQSIHTYLNWYQQKPGKAPKLLIYAASALASGVPSRFSGSGSGTDFTLTISSLQPEDFATYYCQQSYSAPPYTFGQGTKVEIK
# B4: SARS-CoV-2 variant 1-25 (antibody, V domains shown)
# VH: EVQLLESGGGLVQPGGSLRLSCAASGFTFSDYAMNWVRQAPGKGLEWVSIISGSGGSTYYADSVKGRFTISRDNSKNTLYLQMNSLRAEDTAVYYCAREGYRDYLWYFDLWGQGTLVTVSS
# VL: QSALTQPASVSGSPGQSITISCSGTSSDVGSYNLVSWYQQHPGKAPKLMIYEASKRPSGVSNRFSGSKSGNTASLTISGLQAEDEADYYCCSYAGSSTVFGGGTKLTVL
# B5: SARS-CoV-2 variant 1-23 (antibody, V domains shown)
# VH: B4 VH with D31S, M34I, N35S
# VL: B4 VL with S23T, S27N, A53G, S54N, S97Y
# B6: SARS-CoV-2 variant 1-24 (antibody, V domains shown)
# VH: B4 VH with D31S
# VL: B4 VL with S23T, S31Y, A53G, S54N, S96G, T98V
# B7: SARS-CoV-2 variant 1-48 (antibody, V domains shown)
# VH: EVQLLESGGGLVQPGGSLRLSCAASGFTFSSHAMYWVRQAPGKGLEWVSAISGSAGSTYYADSVKGRFTISRDNSKNTLYLQMNSLRAEDTAVYYCAHDTKDFWSGYCIFDPWGQGTLVTVSS
# VL: QSALTQPASVSGSPGQSITISCTGTSSDIGSYNLVSWYQQHPGKAPKLMIYEGTKRPSGVSNRFSGSKSGNTASLTISGLQAEDEADYYCCSYAGSRTYVFGGGTKLTVL
# B8: SARS-CoV-2 variant 1-27 (antibody, V domains shown)
# VH: EVQLLESGGGLVQPGGSLRLSCAASGFTFSSYAMTWVRQAPGKGLEWVSAISGSGGGTYYADSVKGRFTISRDNSKNTLYLQMNSLRAEDTAVYYCASSSSWQFDYWGQGTLVTVSS
# VL: QSALTQPASVSGSPGQSITISCTGTSSYVGHYNLVSWYQQHPGKAPKLMIYEGSRRPSGVSNRFSGSKSGNTASLTISGLQAEDEADYYCCSYAGSYTHYVFGGGTKLTVL
# B9: SARS-CoV-2 variant 1-7 (antibody, V domains shown)
# VH: EVQLLESGGGLVQPGGSLRLSCAASGFTFSSYDMSWVRQAPGKGLEWVSVISGSGGSTYYADSVKGRFTISRDNSKNTLYLQMNSLRAEDTAVYYCAKGPLVGWYFDLWGQGTLVTVSS
# VL: B8 VL with Y28D, V29F, H31S, S54N, R55K, Y97S, H99F, Y100V
# B10: SARS-CoV-2 variant 1-10 (antibody, V domains shown)
# VH: B9 VH
# VL: B8 VL with Y28N, H31S, S54T, R55K, Y97S, T98S, H99F, Y100V
# B11: SARS-CoV-2 variant 1-35 (antibody, V domains shown)
# VH: EVQLLESGGGLVQPGGSLRLSCAASGFTFSNYAMSWVRQAPGKGLEWVSDISGSGGSTYYADSVKGRFTISRDNSKNTLYLQMNSLRAEDTAVYYCVKGTIPIFGVIRSAFDYWGQGTLVTVSS
# VL: B8 VL with Y28D, H31S, N33S, S54T, R55K, T98S, H99Y, Y100V
# B12: SARS-CoV-2 variant 1-36 (antibody, V domains shown)
# VH: B11 VH with F27L, N31S
# VL: B8 VL with Y28D, H31S, N33S, S54D, R55K, T98S, H99Y, Y100V
# Target: T1, SARS-CoV-2 spike on live SARS-CoV-2 virus (SARS-CoV-2, UniProt P0DTC2 14-1273)
# Assay: cell-based or functional assay
row,Binder,PRNT90 [ng/mL]
1,B1,15.6

# Target: T1, SARS-CoV-2 spike on live SARS-CoV-2 …
# Assay: cell-based or functional assay
# Remark: another data set of the same source
row,Binder,EC80 [mg/L]
1,B1,0.57

# Target: T2, SARS-CoV-2 S1 (antigen of the Carterra SPR kinetics) (SARS-CoV-2, UniProt P0DTC2 16-685)
# Assay: Carterra SPR
Binder,Kd [nM],koff [s⁻¹],kon [M⁻¹ s⁻¹]
B2,11.7,0.000906,77400
B3,2.8,0.000259,93900

# Target: T3, COVID S1 RBD Fc fusion (Antigen 1) (SARS-CoV-2, UniProt P0DTC2 319-541)
# Assay: phage ELISA
row,Binder,ELISA fold over background [fold]
1,B2,39.6
2,B3,35.9

# Target: T4, COVID S1 RBM Fc fusion (Antigen 2) (SARS-CoV-2, UniProt P0DTC2 437-508)
# Assay: phage ELISA
row,Binder,ELISA fold over background [fold]
1,B4,0.8
2,B5,1.6
3,B6,1.3
4,B7,0.8
5,B8,1.6
6,B9,1.6
7,B10,1.1
8,B11,1.6
9,B12,0.8

# Target: T5, COVID S1 RBM Fc fusion (Antigen 2) (SARS-CoV-2, UniProt P0DTC2 437-508)
# T5 construct: domain: RBM
# Assay: phage ELISA
row,Binder,ELISA fold over background [fold]
1,B2,1.1
2,B3,1.1

# Target: T6, COVID S1 RBD Fc fusion (Antigen 1) (SARS-CoV-2, UniProt P0DTC2 319-541)
# Assay: phage ELISA
row,Binder,ELISA fold over background [fold]
1,B4,2.7
2,B5,3.6
3,B6,11
4,B7,2.1
5,B8,1.9
6,B9,3.3
7,B10,17.4
8,B11,1.8
9,B12,1.2

# Target: T7, S1 Fc fusion protein (SARS-CoV-2, UniProt P0DTC2 14-685)
# T7 construct: domain: S1
# Assay: phage ELISA
row,Binder,ELISA fold over background [fold]
1,B2,4.7
2,B3,24.3

# Target: T8, S1 Fc fusion protein (SARS-CoV-2, UniProt P0DTC2 14-685)
# Assay: phage ELISA
row,Binder,ELISA fold over background [fold]
1,B4,1
2,B5,1.6
3,B6,1.1
4,B7,0.8
5,B8,1.3
6,B9,1.7
7,B10,1.3
8,B11,1.4
9,B12,1.1

# Target: SARS-CoV-2 spike on VSV-pseudotype SARS-CoV-2 (SARS-CoV-2, UniProt P0DTC2 14-1273)
# Assay: cell-based or functional assay
row,Binder,NC50 [µg/mL]
1,B1,0.54

# Target: T2, SARS-CoV-2 S1 (antigen of the Carterra …)
# Assay: Carterra SPR
# Remark: another data set of the same source
Binder,koff [s⁻¹],kon [M⁻¹ s⁻¹]
B2,0.000906,77400
B3,0.000259,93900

# Target: T3, COVID S1 RBD Fc fusion (Antigen 1)
# Assay: phage ELISA
# Remark: another data set of the same source
row,Binder,ELISA fold over background [fold]
1,B2,39.6
2,B3,35.9

# Target: T4, COVID S1 RBM Fc fusion (Antigen 2)
# Assay: phage ELISA
# Remark: another data set of the same source
row,Binder,ELISA fold over background [fold]
1,B4,0.8
2,B5,1.6
3,B6,1.3
4,B7,0.8
5,B8,1.6
6,B9,1.6
7,B10,1.1
8,B11,1.6
9,B12,0.8

# Target: T5, COVID S1 RBM Fc fusion (Antigen 2)
# Assay: phage ELISA
# Remark: another data set of the same source
row,Binder,ELISA fold over background [fold]
1,B2,1.1
2,B3,1.1

# Target: T6, COVID S1 RBD Fc fusion (Antigen 1)
# Assay: phage ELISA
# Remark: another data set of the same source
row,Binder,ELISA fold over background [fold]
1,B4,2.7
2,B5,3.6
3,B6,11
4,B7,2.1
5,B8,1.9
6,B9,3.3
7,B10,17.4
8,B11,1.8
9,B12,1.2

# Target: T7, S1 Fc fusion protein
# Assay: phage ELISA
# Remark: another data set of the same source
row,Binder,ELISA fold over background [fold]
1,B2,4.7
2,B3,24.3

# Target: T8, S1 Fc fusion protein
# Assay: phage ELISA
# Remark: another data set of the same source
row,Binder,ELISA fold over background [fold]
1,B4,1
2,B5,1.6
3,B6,1.1
4,B7,0.8
5,B8,1.3
6,B9,1.7
7,B10,1.3
8,B11,1.4
9,B12,1.1

# Target: T1, SARS-CoV-2 spike on live SARS-CoV-2 …
# Assay: cell-based or functional assay
# Remark: another data set of the same source
row,Binder,EC50 [mg/L]
1,B1,0.54
